Ends that are not written are not given here.
Experiments:
[1] = target: Tom70:Hsp90_(EEVD) complex (human, UniProt O94826 108-608); test: ITC
[2] = target: T1, human Tom70 (residues 108–608) (human, UniProt O94826 108-608); test: ITC
T1 sequence: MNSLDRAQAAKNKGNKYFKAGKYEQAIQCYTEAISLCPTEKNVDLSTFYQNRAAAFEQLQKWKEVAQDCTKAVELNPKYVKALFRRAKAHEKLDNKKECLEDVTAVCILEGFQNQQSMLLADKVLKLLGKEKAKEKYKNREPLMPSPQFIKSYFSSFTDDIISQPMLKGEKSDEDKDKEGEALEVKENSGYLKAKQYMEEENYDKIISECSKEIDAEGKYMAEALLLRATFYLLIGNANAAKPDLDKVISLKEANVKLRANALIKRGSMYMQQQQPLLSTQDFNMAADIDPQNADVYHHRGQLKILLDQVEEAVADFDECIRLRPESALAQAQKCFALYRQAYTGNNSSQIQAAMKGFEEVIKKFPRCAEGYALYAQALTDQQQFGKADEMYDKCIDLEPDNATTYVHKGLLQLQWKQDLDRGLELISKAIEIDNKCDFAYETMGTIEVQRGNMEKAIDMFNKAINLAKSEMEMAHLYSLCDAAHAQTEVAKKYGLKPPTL

[3] = target: T2, ^19F-labeled Tom70 (5F-tryptophan, residues 108–608) (human, UniProt O94826 108-608, 5-fluoro-tryptophan at W169 and W523); test: NMR titration
T2 sequence: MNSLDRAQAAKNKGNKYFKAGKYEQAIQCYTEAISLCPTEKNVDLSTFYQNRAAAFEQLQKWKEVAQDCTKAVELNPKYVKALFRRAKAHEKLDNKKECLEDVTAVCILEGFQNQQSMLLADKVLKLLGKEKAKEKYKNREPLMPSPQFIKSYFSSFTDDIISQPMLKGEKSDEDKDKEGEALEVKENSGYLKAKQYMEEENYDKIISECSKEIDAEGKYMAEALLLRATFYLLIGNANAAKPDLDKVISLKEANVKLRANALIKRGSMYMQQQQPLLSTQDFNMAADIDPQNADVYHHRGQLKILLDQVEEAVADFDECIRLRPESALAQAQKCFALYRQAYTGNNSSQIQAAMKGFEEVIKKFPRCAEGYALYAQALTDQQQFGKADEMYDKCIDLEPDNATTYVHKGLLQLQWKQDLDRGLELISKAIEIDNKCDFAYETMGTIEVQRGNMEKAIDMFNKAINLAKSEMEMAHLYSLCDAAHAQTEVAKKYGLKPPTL

[4] = target: T1, human Tom70 (residues 108–608); test: cryo-EM structure
[5] = target: ^19F Tom70:Orf9b_(Helix) complex (human | SARS-CoV-2, UniProt O94826 108-608, 5-fluoro-tryptophan at W169 and W523); test: NMR titration
[6] = target: Tom70:Orf9b_(Helix) complex (human | SARS-CoV-2, UniProt O94826 108-608); test: ITC

Measured: binding result

IILRLGSPLSLNMARKTLNSLEDKAFQLTPIAVQY [Orf9b_(Helix) peptide]
binds: [1] | [2] | [3]

YDTSRMEEVD-OH [Hsp90_(EEVD) peptide]
binds: [4] | [5] | [6]

Reference: PMC13426413 (Science Advances, 2026)
